# Patent publication US20210340225A1 (HARBOUR ANTIBODIES, published 2021)
# B1: 49F1 VH41 VL42-4 (antibody, V domains shown)
# VH: QVQLVQSGAEVKKPGSSVKVSCKASGGTFSSYAINWVRQAPGQGLEWMGGIIPIFGTANSAQKFQGRVTITADKSTSTAYMELSSLRSEDTAVYYCAREAGIPVAGLADWGQGTLVTVSS
# VL: DIQMTQSPSTLSASVGDRVTITCRASQSISSYLNWYQQKPGKAPKLLIYKASSLESGVPSRFSGSGSGTEFTLTISSLQPDDFGTYYCQQYNSYYTFGQGTKLEIK
# B2: 47D11 fully human IgG1 monoclonal antibody (antibody, V domains shown)
# VH: QVQLQESGPGLVKPSETLSLTCSVSGGSISSHYWSWIRQPPGKGLEWIGYIYYSGSTNHNPSLKSRVTISVDTSKNQFSLKLSSVTAADTAVYYCARGVLLWFGEPIFEIWGQGTMVTVSS
# VL: EIVMTQSPATLSVSPGERATLSCRASQSVSSSLAWYQQKPGQAPRLLIYGASTRAPGIPARFSGSGSGTEFTLTISSLQSEDFAVYYCQQYNNWPLTFGGGTKVEIKR
# Legend:
# [1] = target: T1, SARS-CoV spike [change] receptor binding domain (SARS-[change]), residues 325-533, Strep-tagged (SARS-CoV, UniProt P59594 325-533); test: ELISA, serial dilution of supernatant after transfection
# [2] = target: T2, SARS-CoV-2 spike S1B receptor binding domain (SARS2-S1B), residues 329-538, Strep-tagged (SARS-CoV-2 (strain Wuhan-Hu-1), UniProt P0DTC2 329-538); test: as above
# [3] = target: T1, SARS-CoV spike [change] receptor …
# [4] = target: T3, SARS-CoV-2 spike ectodomain (SARS2-Secto), residues 1-1,213, with C-terminal trimerization motif and Strep-tag (SARS-CoV-2 (strain Wuhan-Hu-1), UniProt P0DTC2 14-1213)
# [5] = target: T2, SARS-CoV-2 spike S1B receptor binding …
# [6] = target: T1, SARS-CoV spike [change] receptor …; remark: listed apart in the source
# [7] = target: T3, SARS-CoV-2 spike ectodomain …; remark: listed apart in the source
# [8] = target: T2, SARS-CoV-2 spike S1B receptor binding …; remark: listed apart in the source
# [9] = target: T1, SARS-CoV spike [change] receptor …; remark: listed apart in the source
# [10] = target: T2, SARS-CoV-2 spike S1B receptor binding …; remark: listed apart in the source
# [11] = target: T2, SARS-CoV-2 spike S1B receptor binding …; test: ELISA, antigen coated at equimolar amounts, mAb titrated; ELISA EC50, not BLI
# [12] = target: T1, SARS-CoV spike [change] receptor …; test: ELISA, antigen coated at equimolar amounts, mAb titrated
# [13] = target: T3, SARS-CoV-2 spike ectodomain …; test: as above
# [14] = target: SARS2-S with 18-a.a. cytoplasmic tail truncation, on pseudotyped VSV particles (SARS-CoV-2, UniProt P0DTC2 14-1255); test: cell-based or functional assay
# [15] = target: SARS-S with 28-a.a. cytoplasmic tail truncation, on pseudotyped VSV particles (SARS-CoV, UniProt P59594 14-1227); test: cell-based or functional assay
# [16] = target: WIV16-S with 19-a.a. cytoplasmic tail truncation, on pseudotyped VSV particles (bat SARS-like coronavirus WIV16); test: cell-based or functional assay
Binder,binding result [1],binding result [2],koff [3],kon [3],koff [4],kon [4],koff [5],kon [5],Kd [6],Kd [7],Kd [8],EC50 (read off the curve) [9],EC50 (read off the curve) [10],EC50 [11],EC50 [12],EC50 [13],"IC50, infection of VeroE6 cells with SARS2-S pseudotyped VSV (luciferase) [14]","IC50, infection of VeroE6 cells with SARS-S pseudotyped VSV (luciferase) [15]","IC50, neutralization of WIV16-S pseudotyped VSV [16]"
B1,no binding (tested: undiluted supernatant),no binding (tested: undiluted supernatant),–,–,–,–,–,–,–,–,–,–,–,–,–,–,–,–,–
B2,–,–,0.00021 s⁻¹,20000 M⁻¹ s⁻¹,9.85e-05 s⁻¹,9770 M⁻¹ s⁻¹,0.000137 s⁻¹,15100 M⁻¹ s⁻¹,16.1 nM,10.8 nM,9.6 nM,~0.1 µg/mL,~0.1 µg/mL,0.03 µg/mL,0.02 µg/mL,0.15 µg/mL,0.08 µg/mL,0.06 µg/mL,0.165 µg/mL
